Laboratory results taken from the supplement of paper PMC7125110.
± gives the standard error. For some assays here: Fewer inactive variants are shown than the library holds.

B1: glmS ribozyme (parent)
chain: AUAAAAGCGCCAGAACUACAGAAAUGUAGUUGACGAGGAGGAGGUUUAUCGAAUUUUCGGCGGAUGCCUCCAAA

What was measured:
Settings in all cases: with glucosamine-6-phosphate
glucosamine-6-phosphate [1] = variants of: B1; assay: kcat; higher = faster cleavage; RNA array
Method in brief: (§1)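 Ribozyme variants carrying barcodes were transcribed in situ on sequenced MiSeq chips by E. coli RNA polymerase and tracked at 37 °C with a hybridised Cy3 probe. They were exposed to 40 μM to 10 mM glucosamine-6-phosphate in HEPES/KCl/Mg(OAc)2 buffer. kobs came from exponential decay fits of normalised per-tile medians, and kcat and KM from weighted Michaelis–Menten fits.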

glucosamine-6-phosphate [2] = variants of: B1; assay: KM; higher = weaker cofactor use; RNA array
Method in brief: as §1

glucosamine-6-phosphate [3] = variants of: B1; assay: self-cleavage kobs at 640 uM GlcN6P; higher = faster cleavage; RNA array
Method in brief: as §1

glucosamine-6-phosphate [4] = variants of: B1; assay: self-cleavage kobs at 2500 uM GlcN6P; higher = faster cleavage; RNA array
Method in brief: as §1

glucosamine-6-phosphate [5] = variants of: B1; assay: self-cleavage kobs at 10000 uM GlcN6P; higher = faster cleavage; RNA array
Method in brief: as §1

glucosamine-6-phosphate [6] = variants of: B1; assay: self-cleavage kobs at 160 uM GlcN6P; higher = faster cleavage; RNA array
Method in brief: as §1

glucosamine-6-phosphate [7] = variants of: B1; assay: self-cleavage kobs at 40 uM GlcN6P; higher = faster cleavage; RNA array
Method in brief: as §1

Row | Variant | kcat (glucosamine-6-phosphate [1]) [s⁻¹] | KM (glucosamine-6-phosphate [2]) [µM] | self-cleavage kobs at 640 uM GlcN6P (glucosamine-6-phosphate [3]) [s⁻¹] | self-cleavage kobs at 2500 uM GlcN6P (glucosamine-6-phosphate [4]) [s⁻¹] | self-cleavage kobs at 10000 uM GlcN6P (glucosamine-6-phosphate [5]) [s⁻¹] | self-cleavage kobs at 160 uM GlcN6P (glucosamine-6-phosphate [6]) [s⁻¹] | self-cleavage kobs at 40 uM GlcN6P (glucosamine-6-phosphate [7]) [s⁻¹]
1 | C16A U65G | 0.000487 ± 7.9e-05 | 3310 ± 1000 | 8.78e-05 ± 1.8e-05 | 0.000156 ± 5.5e-05 | 0.000382 ± 5.9e-05 |  | 
2 | A39U U45C | 0.00276 ± 0.0012 |  | 0.000268 ± 4.7e-05 | 0.000599 ± 0.00011 | 0.002 ± 0.00034 | 8.23e-05 ± 1.6e-05 | 
3 | G43A C68G | 0.000174 ± 1.4e-05 | 993 ± 160 | 6.69e-05 ± 1.2e-05 | 0.000126 ± 2e-05 |  |  | 
4 | A12G G59U | 1e-05 ± 1.9e-06 |  |  |  |  |  | 
5 | G40U A48U | 7.9e-05 ± 9.5e-06 | 3220 ± 1300 |  | 3.77e-05 ± 1.6e-05 | 5.95e-05 ± 8.8e-06 |  | < 1e-05
6 | C10A G13A | < 1e-05 |  |  |  |  | < 1e-05 | < 1e-05
7 | U65G U69C | 0.00467 ± 0.0019 |  | 0.000431 ± 8.3e-05 | 0.00108 ± 0.00019 | 0.00297 ± 0.0005 | 0.000177 ± 4.5e-05 | 
8 | A12C G66A | 0.00855 ± 0.0022 | 1580 ± 570 | 0.00241 ± 0.00027 | 0.00753 ± 0.0014 | 0.00648 ± 0.0015 | 0.000705 ± 0.00014 | 0.00028 ± 7e-05
9 | G59U C71A | 1.28e-05 ± 7.6e-07 |  |  |  |  |  | 
10 | A12G G29A | 0.000356 ± 6.4e-05 | 7170 ± 1900 | 3.29e-05 ± 1e-05 | 8.7e-05 ± 1.7e-05 | 0.000213 ± 4.3e-05 |  | 
11 | U31G C70G | 0.000132 ± 1.8e-05 | 595 ± 260 | 6.05e-05 ± 1.2e-05 | 0.000118 ± 3.1e-05 | 0.000126 ± 1.8e-05 | 5.51e-05 ± 2.2e-05 | 
12 | U49C C71G | 1.02e-05 ± 5.3e-07 |  |  |  |  |  | 
13 | G51U C61A | < 1e-05 |  |  |  | < 1e-05 | < 1e-05 | < 1e-05
14 | A14C U31G G40C | 0.00179 ± 0.00038 | 1560 ± 520 | 0.000477 ± 9.7e-05 | 0.00097 ± 0.00023 | 0.00184 ± 0.00041 |  | 5.2e-05 ± 1.1e-05
15 | U45A C67U | 0.0622 ± 0.028 |  | 0.0118 ± 0.0023 | 0.033 ± 0.01 | 0.0465 ± 0.014 | 0.00246 ± 0.00047 | 0.00106 ± 0.00014
16 | C34G C68U | 1.7e-05 ± 5.3e-06 |  |  |  |  |  | 
17 | C58G U65G | < 1e-05 |  |  |  |  |  | 

Row | Variant | kcat (glucosamine-6-phosphate [1]) [s⁻¹] | KM (glucosamine-6-phosphate [2]) [µM] | self-cleavage kobs at 640 uM GlcN6P (glucosamine-6-phosphate [3]) [s⁻¹] | self-cleavage kobs at 2500 uM GlcN6P (glucosamine-6-phosphate [4]) [s⁻¹] | self-cleavage kobs at 10000 uM GlcN6P (glucosamine-6-phosphate [5]) [s⁻¹] | self-cleavage kobs at 160 uM GlcN6P (glucosamine-6-phosphate [6]) [s⁻¹] | self-cleavage kobs at 40 uM GlcN6P (glucosamine-6-phosphate [7]) [s⁻¹]
18 | U54G C58U C67U | 4.43e-05 ± 9.6e-06 |  |  | 5.48e-05 ± 1.7e-05 | 3.78e-05 ± 1.2e-05 |  | 
19 | G13A A14U | 0.000964 ± 0.00014 | 3120 ± 800 | 0.000184 ± 2.9e-05 | 0.000365 ± 5e-05 | 0.000781 ± 8e-05 | 5.13e-05 ± 1.1e-05 | 
20 | U57A U69C | 0.000113 ± 1.4e-05 | 1640 ± 640 |  | 7.81e-05 ± 1.8e-05 | 9.38e-05 ± 1.8e-05 |  | 
21 | U57C C67A | 3.95e-05 ± 1.7e-06 | 157 ± 71 | 3.33e-05 ± 1.5e-05 | 3.6e-05 ± 1.1e-05 | 3.97e-05 ± 1.2e-05 |  | 
22 | A12U G41U | 0.0013 ± 0.00058 |  | 0.000814 ± 8.1e-05 | 0.00212 ± 0.00022 |  | 0.00041 ± 5.1e-05 | 0.000239 ± 2.1e-05
23 | G37C | 5.32e-05 ± 1.7e-06 | 1380 ± 210 | 1.88e-05 ± 1.5e-06 | 3.22e-05 ± 1.5e-06 | 4.71e-05 ± 8.5e-07 |  | 
24 | G37U | < 1e-05 |  |  | < 1e-05 | < 1e-05 |  | 
25 | U49G C67G | 8.59e-05 ± 1e-05 |  | 3.79e-05 ± 1e-05 | 4.61e-05 ± 8.8e-06 | 7.87e-05 ± 6.7e-06 |  | 
26 | U56G C61U | < 1e-05 |  |  |  |  |  | < 1e-05
27 | A39G U45C | 0.0102 ± 0.0019 | 3810 ± 980 | 0.00126 ± 0.00034 | 0.00381 ± 0.0011 | 0.00774 ± 0.0016 |  | 0.00012 ± 2.4e-05
28 | G37A C71G | 0.000188 ± 2.3e-05 | 2370 ± 690 | 4.08e-05 ± 7.8e-06 | 9.24e-05 ± 9.5e-06 | 0.000155 ± 1.4e-05 | 3.34e-05 ± 1.4e-05 | 
29 | U46G U69G | 7.96e-05 ± 5.9e-06 |  | 0.000111 ± 1.6e-05 | 7.44e-05 ± 1.1e-05 | 7.71e-05 ± 5.3e-06 | 7.35e-05 ± 1.7e-05 | 5.51e-05 ± 9.4e-06
30 | C19A A42G | 0.00828 ± 0.0016 | 164 ± 59 | 0.00596 ± 0.0022 |  |  |  | 0.00166 ± 0.00056
31 | A6G U56G | 0.000188 ± 3.3e-05 | 1150 ± 540 | 7.97e-05 ± 1.2e-05 | 0.000107 ± 1.5e-05 | 0.000191 ± 2.3e-05 |  | 
32 | A39G C58A | 0.00088 ± 0.00013 | 4140 ± 1100 | 0.000129 ± 3e-05 | 0.000275 ± 6.4e-05 | 0.000642 ± 7.7e-05 | 4.38e-05 ± 1.9e-05 | 
33 | G41A A48C | 1.6e-05 ± 1.9e-06 | 2350 ± 1000 | < 1e-05 |  |  |  | < 1e-05
34 | C11A A39C | 3.87e-05 ± 5.2e-06 |  |  | 4.76e-05 ± 1.5e-05 | 3.53e-05 ± 7.7e-06 |  | 
